Assay results taken from patent US20160130329A1 (UNIVERSITY OF CHICAGO, published 2016).
Where no end group is shown, it is not given here. [ ]: non-standard residue; d: D form. Lys(Me3) = C[N+](C)(C)CCCC[C@H](N)C(=O)O

Legend:
H3K36me3 peptide [1] = molecular target: T1, H3K36me3 peptide (K(me3) at H3 K36; K(biotin) near the C-terminus, as printed: SAPATGGVK-K(me3)-PHRYRPGG-K(biotin)-D); experiment: peptide IP assay (FIG. 8B)
T1 peptide: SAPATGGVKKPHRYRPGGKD

H3K56me3 peptide [2] = molecular target: T2, H3K56me3 peptide (K(me3) at H3 K56; K(biotin) near the C-terminus, as printed: LREIRRYQ-K(me3)-STELLIRGG-K(biotin)-D); experiment: peptide IP assay (FIG. 8B)
T2 peptide: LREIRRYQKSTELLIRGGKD

H3K4me3 peptide [3] = molecular target: T3, H3K4me3 peptide (also: biotinylated, site not given here); experiment: quantitative peptide IP assay
T3 peptide: ART[Lys(Me3)]QTARKSTGGYCD

H3K4me3 peptide [4] = molecular target: T3, H3K4me3 peptide; experiment: peptide IP assay (antibody on beads, flow cytometry)
H3K4me3 peptide [5] = molecular target: T3, H3K4me3 peptide; experiment: quantitative peptide IP assay, biotinylated Fab on streptavidin beads, flow cytometry
H3K27me3 peptide [6] = molecular target: T4, H3K27me3 peptide (trimethyl-lysine at K27 (histone H3 numbering); biotinylated through the GYCD tag); experiment: phage ELISA [A]
T4 peptide: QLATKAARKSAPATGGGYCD

[7] = molecular target: T5, cross-linked chromatin from HEK293T cells; experiment: cross-linked ChIP from HEK293T cells followed by qPCR
T5 construct: A protein-DNA complex

H3K4me3 peptide [8] = molecular target: T3, H3K4me3 peptide; experiment: peptide IP assay (antibody on beads, flow cytometry)
H4K20me3 peptide [9] = molecular target: T6, H4K20me3 peptide (trimethyl-lysine at K20 (histone H4 numbering); biotinylated through the GYCD tag); experiment: as above
T6 peptide: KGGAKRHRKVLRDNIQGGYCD

H3K36me3 peptide [10] = molecular target: T1, H3K36me3 peptide; experiment: as above
H3K56me3 peptide [11] = molecular target: T2, H3K56me3 peptide; experiment: as above
H3K4me3 peptide [12] = molecular target: T3, H3K4me3 peptide; experiment: phage ELISA [A]
H4K20me3 peptide [13] = molecular target: T6, H4K20me3 peptide; experiment: phage ELISA [A]
H3K4me3 peptide [14] = molecular target: T3, H3K4me3 peptide; experiment: yeast display, flow cytometry [B]
H3K27me3 peptide [15] = molecular target: T4, H3K27me3 peptide; experiment: yeast display, flow cytometry [B]
H3K36me3 peptide [16] = molecular target: T1, H3K36me3 peptide; experiment: yeast display, flow cytometry [B]
H3K4me3 peptide [17] = molecular target: T3, H3K4me3 peptide; experiment: yeast display, flow cytometry [A]
H3K27me3 peptide [18] = molecular target: T4, H3K27me3 peptide; experiment: yeast display, flow cytometry [A]
H4K20me3 peptide [19] = molecular target: T6, H4K20me3 peptide; experiment: yeast display, flow cytometry [A]

B1: 304M3-A (Fab, V domains shown)
VH: EVQLVETGGGVVQPGRSLRLSCTASGFTFRDYWMSWVRQAPGKGLEWVADINQDGSALYYVDAVKGRFTISRDNAKSSLYLQMNSLGAEDTAVYYCARDLIYGFGWHFDLWGRGTLVTVSS
VL: not shown
notes: Produced and characterized in the same manner as 309M3-A: biotinylated Fab with a biotinylation acceptor peptide at the C-terminus of the heavy chain; also called recombinant anti-H3K4me3 antibody; 304M3-A antibody
binding result (H3K36me3 peptide [1]): no binding | binding result (H3K56me3 peptide [2]): no binding | fold increase in affinity compared with the lead antibody (scFv 4-5) (H3K4me3 peptide [3]): 360 fold | Kd (H3K4me3 peptide [4]): 20 nM | Kd (H3K4me3 peptide [5]): 16 nM

B2: 309M3-A (Fab, V domains shown)
VH: EVQLVETGGGVVQPGRSLRLSCTASGFTFRDHWMSWVRQAPGKGLEWVADINGDSILEYYVDAVKGRFTISRDNAKSSLYLQMNSLGAEDTAVYYCARDFHRGYGWHFDLWGRGTLVTVSS
VL: not shown
notes: also called recombinant anti-H3K9me3 antibody; 309M3-A antibody
binding result (H3K27me3 peptide [6]): no binding (tested: 100 nM peptide) | ChIP enrichment relative to pAb-056-050 (lot A93-0042) [7]: ~3 fold | binding result (H3K4me3 peptide [8]): no binding (tested: 500 nM) | binding result (H4K20me3 peptide [9]): no binding (tested: 500 nM) | binding result (H3K36me3 peptide [10]): no binding (tested: 500 nM) | binding result (H3K56me3 peptide [11]): no binding (tested: 500 nM)

B3: 9H2 (scFv)
scFv: EVQLVETGGGVVQPGRSLRLSCTASGFTFRDHWMSWVRQAPGKGLEWVADIDQEGRWGYYLDAVKGRFTISRDNAKSSLYLQMNSLGAEDTAVYYCARDFLVGFGWHFDLWGRGTLVTVSSSYVLTQPPSVSVAPGQTARITCGGTNIGDISVHWYQQRPGQAPLVVVYDDSDRPSGIPERFSGSNSGNTATLTISRVEAGDEADYYCQVWDDSINAYVFGTGTKVTVL
binding result (H3K4me3 peptide [12]): no binding (tested: 100 nM peptide) | binding result (H3K27me3 peptide [6]): no binding (tested: 100 nM peptide) | binding result (H4K20me3 peptide [13]): no binding (tested: 100 nM peptide)

B4: 20H1 (scFv)
scFv: EVQLVETGGGVVQPGRSLRLSCTASGFTFRDNWMSWVRQAPGKGLEWVADINQNGRYFYYIDAVKGRFTISRDNAKSSLYLQMNSLGAEDTAVYYCARAFQRGRGWHFDLWGRGTLVTVSSSYVLTQPPSVSVAPGQTARITCGGTNIGDISVHWYQQRPGQAPLVVVYDDSDRPSGIPERFSGSNSGNTATLTISRVEAGDEADYYCQVWDDSINAYVFGTGTKVTVL
binding result (H3K4me3 peptide [14]): no binding (tested: 500 nM) | binding result (H3K27me3 peptide [15]): no binding (tested: 500 nM) | binding result (H3K36me3 peptide [16]): no binding (tested: 500 nM)

B5: 36H3 (scFv)
scFv: EVQLVETGGGVVQPGRSLRLSCTASGFTFRDYWMSWVRQAPGKGLEWVADLNKDGKYAYYLDAVKGRFTISRDNAKSSLYLQMNSLGAEDTAVYYCARDFVRGSGWHFDLWGRGTLVTVSSSYVLTQPPSVSVAPGQTARITCGGTNIGDISVHWYQQRPGQAPLVVVYDDSDRPSGIPERFSGSNSGNTATLTISRVEAGDEADYYCQVWDDSINAYVFGTGTKVTVL
binding result (H3K4me3 peptide [17]): no binding (tested: 500 nM) | binding result (H3K27me3 peptide [18]): no binding (tested: 500 nM) | binding result (H4K20me3 peptide [19]): no binding (tested: 500 nM)
